Results on seven molecules are retold here after patent publication US7871610B2, “Antibodies to Tie1 ectodomain” (Dyax Corp., priority 2003, dated 2011).

“Also recorded” adds a separate entry of the source.

Assay [1] has as its target T1, Tie1-EpoR chimeric receptor (UniProt P14753+P35590).
T1 construct: the PCR amplified extracellular part of human Tie1 (bp 37-2316 of X60975); expressed in transfected cells
T1 sequence (P35590+P14753 with tags, fused parts or gaps): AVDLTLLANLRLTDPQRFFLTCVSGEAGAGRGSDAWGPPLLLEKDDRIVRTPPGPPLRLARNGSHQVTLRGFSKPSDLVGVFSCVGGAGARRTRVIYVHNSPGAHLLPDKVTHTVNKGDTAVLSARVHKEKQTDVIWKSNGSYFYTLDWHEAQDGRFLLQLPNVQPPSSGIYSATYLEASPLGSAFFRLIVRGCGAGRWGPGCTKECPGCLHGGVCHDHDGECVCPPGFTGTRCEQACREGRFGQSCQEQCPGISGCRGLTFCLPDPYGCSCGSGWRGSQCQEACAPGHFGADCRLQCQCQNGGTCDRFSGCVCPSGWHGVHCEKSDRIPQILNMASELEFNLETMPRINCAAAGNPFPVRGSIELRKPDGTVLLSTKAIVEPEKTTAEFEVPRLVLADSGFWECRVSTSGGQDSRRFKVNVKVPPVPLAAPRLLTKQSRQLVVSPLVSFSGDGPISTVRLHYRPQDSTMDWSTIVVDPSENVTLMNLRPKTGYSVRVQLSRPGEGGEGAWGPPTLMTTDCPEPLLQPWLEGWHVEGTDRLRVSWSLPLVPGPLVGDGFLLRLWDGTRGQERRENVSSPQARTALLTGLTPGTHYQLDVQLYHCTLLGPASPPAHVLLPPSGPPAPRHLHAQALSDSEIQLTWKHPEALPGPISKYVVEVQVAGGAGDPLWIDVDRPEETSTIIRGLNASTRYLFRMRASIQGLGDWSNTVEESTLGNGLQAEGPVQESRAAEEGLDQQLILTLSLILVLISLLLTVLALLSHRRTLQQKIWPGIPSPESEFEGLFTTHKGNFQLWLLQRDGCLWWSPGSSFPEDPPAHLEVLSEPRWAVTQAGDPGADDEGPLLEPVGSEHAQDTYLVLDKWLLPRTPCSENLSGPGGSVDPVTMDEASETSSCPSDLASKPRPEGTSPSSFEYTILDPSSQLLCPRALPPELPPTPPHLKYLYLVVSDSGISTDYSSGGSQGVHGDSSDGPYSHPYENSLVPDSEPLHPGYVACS
The assay can be described thus: Ba/F3 bioassay (Tie1/EpoR chimeric BaF3 cell assay), MTT viability. The assay is classed as cell-based, human. The settings on record: 100 ng/ml E3 IgG together with 100 (1:1) or 500 (1:5) ng/ml of the other antibody. An excerpt: To generate Tie1-EpoR expressing Ba/F3 cells for the bioassay, Ba/F3 pre-B cells were stably transfected with a nucleic acid that expresses chimeric receptor containing the extracellular domain of human Tie1 fused with the transmembrane and cytoplasmic domains of the mouse erythropoietin receptor. The nucleic acid used was a Tie1-EpoR chimeric cDNA in a pEF-BOS expression vector. The nucleic acid encoding the chimeric receptor was constructed by cloning the PCR amplified extracellular part of human Tie1 (bp 37-2316 of X60975) as EcoRI-BglII fragment into mEpoR-pcDNA vector. The cDNA encoding for the chimeric receptor consisting of the extracellular part of Tie1 fused with the transmembrane and intracellular domains of EpoR was subcloned into the pEF-BOS expression vector. Vector was linearized and co-transfected into Ba/F3 cells with pcDNA3.1(+) Zeo vector (Invitrogen). Stable cell pools were generated by selection with 250 μg/ml Zeocin. The expression of Tie1/EpoR fusion protein in several clones was analyzed by Western blotting with an antibody against EpoR.
To perform the assays, Ba/F3 cells expressing the Tie 1-EpoR chimera were split in 96-well microtiter plates at 50 000 cells/well in the presence of the indicated concentrations of anti-Tie1 antibodies. As controls, Zeocin resistant pools not expressing the Tie1-EpoR were used. After 48 h, the viability of the cells was determined by adding MTT (3-(4,5-dimethylthiazol-2-yl)-2,5-diphenyl tetrazolium bromide (Sigma), 0.5 mg/ml), followed by further 2 h of culture, addition of an equal volume of cell lysis solution (10% SDS, 10 mM HCl) and incubation overnight at 37° C. Absorbance was measured at 540 nm.
Although no ligand for Tie1 has been identified, we used the following efficient screening method for Tie1-binding proteins. Interleukin-3 dependent pre-B-lymphocyte (Ba/F3) cells were transfected with a construct that expresses a Tie1-EpoR fusion protein. Since Ba/F3 cells are IL-3 dependent, they die unless IL-3 is provided. However, Tie-EpoR receptor expressing Ba/F3 cells can survive and proliferate if the medium contains a Tie1-binding protein, either a natural ligand or an artificial mimetic. Cell survival can be quantitated, e.g., by colorimetric MTT-assay, which measures mitochondrial activity.

In another assay the target is Tie1 (Homo sapiens, UniProt P35590). In words: Immunohistochemistry of matched human tumor and normal tissue sections. The settings on record: fresh frozen tissue. Details: from tissue; host or cells: fresh frozen normal and tumor tissue (e.g. lung, kidney, skin, breast). Here is the method: The Tie-1 antibodies were biotinylated using the EZ-link Sulfo-NHS-SS-Biotin (Pierce, Cat. 21331). For Tie-1/Fc and Tie-1-His, the reaction was performed for 2 hours on ice in 50 mM sodium carbonate buffer, pH 9.6, in the presence of a 5-fold molar excess of biotinylating agent. For the antibodies, the reaction was performed for 2 hours on ice in PBS, in the presence of a 15-fold molar excess of EZ-link Sulfo-NHS-SS-Biotin. The reaction was stopped by the addition of Tris-HCl, pH 7.5 (50 mM final concentration) followed by a 1-hour incubation on ice. Samples were then dialyzed against PBS.
Chain of Tie1 (P35590 22-1138): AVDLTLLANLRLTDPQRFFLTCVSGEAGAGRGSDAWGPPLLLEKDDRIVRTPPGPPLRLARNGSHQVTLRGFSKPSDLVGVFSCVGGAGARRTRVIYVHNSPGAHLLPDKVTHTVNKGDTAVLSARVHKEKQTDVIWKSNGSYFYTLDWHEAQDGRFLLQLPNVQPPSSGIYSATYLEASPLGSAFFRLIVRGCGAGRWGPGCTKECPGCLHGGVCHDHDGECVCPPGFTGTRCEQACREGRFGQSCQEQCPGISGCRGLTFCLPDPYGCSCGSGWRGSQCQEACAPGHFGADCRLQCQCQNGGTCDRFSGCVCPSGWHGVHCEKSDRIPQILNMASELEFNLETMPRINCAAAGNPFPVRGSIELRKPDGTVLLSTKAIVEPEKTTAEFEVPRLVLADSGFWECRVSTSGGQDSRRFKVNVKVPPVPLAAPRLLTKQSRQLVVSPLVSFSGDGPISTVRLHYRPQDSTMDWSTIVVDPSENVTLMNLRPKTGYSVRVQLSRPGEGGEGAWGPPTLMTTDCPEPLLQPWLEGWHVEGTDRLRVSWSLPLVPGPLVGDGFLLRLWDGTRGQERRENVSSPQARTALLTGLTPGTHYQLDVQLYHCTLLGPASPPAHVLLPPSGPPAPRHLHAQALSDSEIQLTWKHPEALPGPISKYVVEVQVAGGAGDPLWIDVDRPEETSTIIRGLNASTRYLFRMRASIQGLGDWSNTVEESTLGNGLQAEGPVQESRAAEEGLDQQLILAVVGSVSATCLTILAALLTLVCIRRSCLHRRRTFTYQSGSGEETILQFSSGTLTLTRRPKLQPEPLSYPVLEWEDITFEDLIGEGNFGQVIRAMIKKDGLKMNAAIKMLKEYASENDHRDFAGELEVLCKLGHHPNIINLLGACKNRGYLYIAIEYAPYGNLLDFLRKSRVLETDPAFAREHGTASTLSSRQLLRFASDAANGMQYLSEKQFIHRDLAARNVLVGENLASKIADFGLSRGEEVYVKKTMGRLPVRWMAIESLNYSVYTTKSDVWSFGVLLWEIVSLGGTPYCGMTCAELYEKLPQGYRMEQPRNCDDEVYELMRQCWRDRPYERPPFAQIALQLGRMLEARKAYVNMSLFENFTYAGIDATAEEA
Various normal and tumor tissue sections were stained with biotinylated antibodies. A mouse monoclonal anti-Tie1 antibody (7e8) (Alitalo laboratory, University of Helsinki) was used as a positive control. Sections without primary antibody served as negative control. All samples were fresh frozen tissues and staining was performed with the TSA-kit (Perkin-Elmer Life Sciences). After acetone fixation (10-20 min, −20° C.) the slides were treated with 0.73% H2O2 for 10 min to reduce endogenous peroxidase activity followed by blocking for 30 min with TNB buffer. Sections ([…] thick) were incubated with primary antibodies (10 μg/ml) overnight at 4° C. Sections with the mouse monoclonal anti-tie1 antibody (7e8) were treated with biotinylated anti-mouse antibodies (VectaStain) before the addition of streptavidin-HRP. Signal was amplified by using a TSA kit and the visualized by AEC (235 ml NaAc, 15 ml AEC (stock solution: 1600 mg 3-amino-9-ethyl-carbazole and 480 ml N-dimethylformamide), 250 μl H2O2).

B1: A2: anti-Tie1 antibody; VH SEQ ID NO:56, VL SEQ ID NO:58; not the anti-streptavidin A2-SV (antibody, V domains shown)
VH: EVQLLESGGGLVQPGGSLRLSCAASGFTFSRYTMMWVRQAPGKGLEWVSGIYPSGGVTLYADSVKGRFTISRDNSKNTLYLQMNSLRAEDTAVYYCARVNYYDSSGYGPIAPGLDYWGQGTLVTVSSASTKGPSVFP
VL: HSAQDIQMTQSPGTLSLSPGERATLSCRASRSVIISYVAWYQQKPGQAPRLLIYGASTRATGIPDRFSGSGSGTDFTLTISRLEPEDFAVYFCQLYGRSPRIIFGQGTRLEIK
modifications: Synthetically generated peptide
notes: anti-Tie1 antibody; not the anti-streptavidin A2-SV
As for B1, in assay [1], the “effect on the survival effect of E3 IgG in Tie1-EpoR Ba/F3 assay” value (shortened to “effect on the survival effect of E3 IgG”) is “inhibited the viability effect of E3 IgG to some extent”.

B2: G2: anti-Tie1 antibody; HC SEQ ID NO:110, LC SEQ ID NO:112 (antibody)
heavy: EVQLLESGGGLVQPGGSLRLSCAASGFTFSSYKMGWVRQAPGRGLEWVSSIYPSGGWTHYADSVKGRFTISRDNSKNTLYLQMNSLRAEDTAVYYCARVLLHYFDYWGQGTLVTVSSASTKGPSVFPLAPSSKSTSGAQRPWAAWSRTTSRDTGDGV
light: QSVLTQPASVSGSPGQSITISCTGTSSDVGGYKYVSWYQQHPGKAPKLIISDVNNRPSGVSDRFSGSKSGNTASLTISGLQAEDDGDYYCSSYASSSYTSSTTWVFGG
modifications: Synthetically generated peptide
With B2, in assay [1], the “effect on the survival effect of E3 IgG” value is “promoted the survival”.

B3: B2: anti-Tie1 antibody; VH SEQ ID NO:64, VL SEQ ID NO:66 (antibody, V domains shown)
VH: EVQLLESGGGLVQPGGSLRLSCAASGFTFSIYGMAWVRQAPGKGLEWVSVISPSGGQTFYADSVKGRFTISRDNSKNTLYLQMNSLRAEDTAVYYCARVYYYGMDVWGQGTTVTVSSASTKGPSVFP
VL: HSAQDIQMTQSPATLSLSPGERATLSCRASQSVSSYLAWYQQKPGQAPRLLIYDASNRATGIPARFSGSGSETDFTLTISSLEPEDFAVYYCQQRSKWPRTFGQGTKLEIK
modifications: Synthetically generated peptide
As to B3, the “effect on the survival effect of E3 IgG” value in assay [1] is “completely blocked the viability; also recorded: blocked completely the survival effect of E3 IgG; also recorded: counteract the agonistic activity of E3”. In addition, in the assay with Tie1 (10 μg/ml), the “staining of breast carcinoma” value is on record as “stained also other structures in addition to vessels”, the staining of kidney result is “only very faint staining of either tubules or vessels”, the “staining of lung carcinoma” value was “stained structures other than vessels” and the “staining of melanoma tissue” value was “also stained other surrounding structures”. Also, in the assay with Tie1 (10 μg/ml), the “staining of normal lung (large veins)” value is “did not stain the same veins” and the “staining of normal skin” value is recorded as “stained blood vessels very faintly”. The “staining of vessels in normal tissues (tissue specificity)” value with Tie1 (biotinylated IgG 10 μg/ml) is listed as “stained vessels very faintly in other normal tissues than in the breast”.

B4: P-B3: anti-Tie1 antibody; VH SEQ ID NO:24, VL SEQ ID NO:26 (antibody, V domains shown)
VH: EVQLLESGGGLVQPGGSLRLSCAASGFTFSRYGMHWVRQAPGKGLEWVSVISPSGGMTYYADSVKGRFTISRDNTKNTLYLQMNSLRAEDTAVYYCARVGATGPFDIWGQGTMVTVSSASTKGPSVFPLAP
VL: QDIQMTQSPATLSLSPGERATLSCRASQSVSTYLAWYQQKPGQAPRLLIYDASNRATGIPGRFSGSGSGTDFTLTISSLEAEDFAVYYCQQRSSWPITFGQG
modifications: Synthetically generated peptide
For B4, in assay [1], the “effect on the survival effect of E3 IgG” value was “inhibited the viability effect of E3 IgG to some extent”.

B5: P-C6: anti-Tie1 antibody; VH SEQ ID NO:28, VL SEQ ID NO:30 (antibody, V domains shown)
VH: EVQLLESGGGLVQPGGSLRLSCAASGFTFSHYGMTWVRQAPGKGLEWVSVISPSGGQTGYADSVKGRFTISRDNSKNTLYLQMNSLRAEDTAVYYCAGGGYAAFDYWGQGTLVTVSSASTKGPSVFPLAPSSKSTSGGTAALG
VL: QDIQMTQSPATLSLSPGERATLSCRASQSVSSYLAWYQQKPGQAPRLLIYDASNRATGIPARFSGSGSGTDFTLTISSLEPEDFAVYYCQQRSNWPLTFGGG
modifications: Synthetically generated peptide
Take B5: the “effect on the survival effect of E3 IgG” value in assay [1] is “inhibited the viability effect of E3 IgG to some extent”.

B6: A10: anti-Tie1 antibody; VH SEQ ID NO:60, VL SEQ ID NO:62 (antibody, V domains shown)
VH: EVQLLESGGGLVQPGGSLRLSCAASGFTFSNYVMVWVRQAPGKGLEWVSGIYPSGGHTKYADSVKGRFTISRDNSKNTLYLQMNSLRAEDTAVYYCARVNYYDSSGYGPIAPGLDYWGQGTLV
VL: HSAQDIQMTQSPGTLSLSPGERATLFCRASQRVTSNSLAWYQQRPGQAPRLLIYDASTRATGIPDRFSGSGSGRDFTLTISRLEPEDFAVYYCQRYGSSVLYSFGQGTKLEIT
modifications: Synthetically generated peptide
On to B6, for which the “effect on the survival effect of E3 IgG” value in assay [1] is “inhibited the viability effect of E3 IgG to some extent”.

B7: C7: anti-Tie1 antibody; VH SEQ ID NO:76, VL SEQ ID NO:78 (antibody, V domains shown)
VH: EVQLLESGGGLVQPGGSLRLSCAASGFTFSRYVMYWVRQAPGKGLEWVSVIYPSGGATYYADSVKGRFTISRDNSKNTLYLQMNSLRAEDTAVYYCARRGSSGAFDYWGQGTLVTVSSASTKGPSVFP
VL: HSAQSVLTQPASVSGSPGQSITISCTGTSSDIGRYNYASWYQQRPGKSPKLLIYEVSDRPSGVSNRFSGSKSGNTASLIISGLQAEDEADYYCSSYSSTNSLQVVFGGGTKLSVLGQPKAAPSVTLFPPSSEELQANKATLVCL
modifications: Synthetically generated peptide
As to B7, the “effect on the survival effect of E3 IgG” value in assay [1] was “promoted the survival”.
